Article doi:10.1101/2022.05.07.491051 (bioRxiv, 2022)
Where two headings read alike, the source gives them in different places.

B1: SeThsA (Streptococcus equi ThsA) (enzyme)
chain: MFIIKGEVSRKDLIREIEKAIKSDELGAFIGAGLSIPAGFCSWKELLREPAEEIGLDVEKESDLVNLAQYYSNSKKRTSIDDLIKGQFSQLVKPTENHKLLSQLPISTFWTTNYDKLIEKALENNMKKPYVKTKDEQLRGTNHNFDAIVYKLHGDVETPEDAVITRSDYEEFGYNKRKLFREVLEGDLLTKTFLFLGFSFEDPNFNYVIGRLRVLLDEKNTRKHYCIMKRVQDADEDYEYKKARQELQIEDLNRYGIFTYLVNKYDEITEILSTLVDRFRRKTIFISGSAYSYSAYSQKTGENFIHKLSFELSKNGYHIVNGYGKGVGEFVLNGVADYCLTHKSKINDFLTLMPFPQNSSLGIDLDKLYKENREQMIESCGIAIFLFGNKEAEDIASGVMDEYELSKKHGLVCLPIEYTGGASKEIYDQTTQEISDKNTISAIEQANKQCDGDIDMSVKNIVQAVKILNKEEF
B2: SeThsA^SIR2 (residues 1-283) (domain or fragment, Streptococcus equi, UniProt C0MAL8 1-283, looked up)
chain: MFIIKGEVSRKDLIREIEKAIKSDELGAFIGAGLSIPAGFCSWKELLREPAEEIGLDVEKESDLVNLAQYYSNSKKRTSIDDLIKGQFSQLVKPTENHKLLSQLPISTFWTTNYDKLIEKALENNMKKPYVKTKDEQLRGTNHNFDAIVYKLHGDVETPEDAVITRSDYEEFGYNKRKLFREVLEGDLLTKTFLFLGFSFEDPNFNYVIGRLRVLLDEKNTRKHYCIMKRVQDADEDYEYKKARQELQIEDLNRYGIFTYLVNKYDEITEILSTLVDRFRRKT
B3: EfThsA (Enterococcus faecium ThsA) (enzyme, UniProt P0DW60 1-478, looked up)
chain: MDKKVLIKRFSEAIEKGNAAIFAGAGLSMSQGYVSWPELLNDPATEIGLDSKKETDLVTLAQYYKNENGGSRGILNQILMDNFGEELEISENHRILASLPIETYWTTNYDHLIEKSIREAYKNPQVKKNYTQLATTNPNVDTIVYKMHGDIDDVSSTVITRDDYEKYDDDSYALFKETLKGDLLTKTFLFLGFSFTDPNLERILSDIRWVLRENQRPHYCIMRKILKENFVDSEDFFDQERYNYELTKRRLQINDLSRFSINVVEVDDYSEITDILKSIRKKYLRKTIFISGSAVDYTPFTSESKGLKFVEKLAYRLSESGYRIVSGYGLGIGNSIVSGVLKQRRNLRKNNIQDVLSLRPLPLDMPHEWRRYRENIIAESGISIFVFGNKLESGEIVTADGMIEEFELSVQNENIVVPIGFTKGASKVLFDKIQENFSDYFDDSLKSKFQALEKLDTEGEVDKKVEQIVSLINSIQED
B4: AbThsA (Acinetobacter baumannii ThsA) (enzyme, UniProt P0DW59 1-482, looked up)
chain: MFEHEQKIMIDRIVKELEENNFAIFAGAGLSAPAGYVNWKELLRPLSIELNLDIDKETDLVSLAQYYVNENHGRNRLTERLIDEVGVAREPTPNHKILAKLPISTYWTTNYDDLIEKALDNEGKIADKKFTKNHLSQTKKGRSAVVYKMHGDASLPDQAIITKDQYESYPLHFAPFVTALSGDLVSKTFLFLGFSFNDPNLDYILSRIRIHFEQNQRQHYCIFRKVNRADYSNDEDFSYNLLKQQFVIKDLARFSIKVVLIDAWNDLTRILEEITKRFRCKNVFLSGSAHEFGSWGQTATELFLSKLGEVLIQEGFKITSGLGLGIGNAFISGAIKEIYNRKYTKIDDYLTMKVFPQFVADPTERKNIWTAWRKDLLSQTGIALFFMGNKIIKDPESGKQTIVLADGMDEEFHIAHELGLKLIPIGASGYKAKELFNQIISDFDHYYPNSSPKFREAFEKLNEEVDEPVKLLSKIHDVIKLI
B5: BcThsA^SLOG (284-476) (domain or fragment, Bacilus cereus MSX-D12, UniProt J8G6Z1 284-476, looked up)
chain: TVFLSGSAVEYNHWETEHAEQFIHQLSKELIRKDFNIVSGFGLGVGSFVINGVLEELYMNQGTIDDDRLILRPFPQGKKGEEQWDKYRRDMITRTGVSIFLYGNKIDKGQVVKAKGVQSEFNISFEQNNYVVPVGATGYIAKDLWNKVNEEFETYYPGADARMKKLFGELNNEALSIEELINTIIEFVEILSN
B6: AbTir^full-length (amino acid 1-269) (natural protein, Acinetobacter, UniProt A0A009IHW8 1-269, looked up)
chain: MSLEQKKGADIISKILQIQNSIGKTTSPSTLKTKLSEISRKEQENARIQSKLSDLQKKKIDIDNKLLKEKQNLIKEEILERKKLEVLTKKQQKDEIEHQKKLKREIDAIKASTQYITDVSISSYNNTIPETEPEYDLFISHASEDKEDFVRPLAETLQQLGVNVWYDEFTLKVGDSLRQKIDSGLRNSKYGTVVLSTDFIKKDWTNYELDGLVAREMNGHKMILPIWHKITKNDVLDYSPNLADKVALNTSVNSIEEIAHQLADVILNR
B7: BtTir^TIR (residues 156-287) (domain or fragment, Bacteroides thetaiotaomicron, UniProt A0A0P0FGV9 156-287, looked up)
chain: QYDFFISHASEDKDDIVRDLAEALRNNGFEVWYDEFELKIGDSLRKKIDYGLSNANYGIVIISPSFVKKNWTEYELNGMVAREMNGHKVILPIWHKITKDEVLRFSPSLADKLALNTSIHTIDDIVENLKNL
B8: BcThsA, full-length (Bacillus cereus MSX-D12 Thoeris ThsA) (enzyme, Bacilus cereus MSX-D12, UniProt J8G6Z1 1-476, looked up)
chain: MKMNPIVELFIKDFTKEVMEENAAIFAGAGLSMSVGYVSWAKLLEPIAQEIGLDVNKENDLVSLAQYYCNENQGNRGRINQIILDEFSRKVDLTENHKILARLPIHTYWTTNYDRLIEKALEEENKIADVKYTVKQLATTKVKRDAVVYKMHGDVEHPSEAVLIKDDYEKYSIKMDPYIKALSGDLVSKTFLFVGFSFTDPNLDYILSRVRSAYERDQRRHYCLIKKEERRPDELEADFEYRVRKQELFISDLSRFNIKTIVLNNYNEITEILQRIENNIKTKTVFLSGSAVEYNHWETEHAEQFIHQLSKELIRKDFNIVSGFGLGVGSFVINGVLEELYMNQGTIDDDRLILRPFPQGKKGEEQWDKYRRDMITRTGVSIFLYGNKIDKGQVVKAKGVQSEFNISFEQNNYVVPVGATGYIAKDLWNKVNEEFETYYPGADARMKKLFGELNNEALSIEELINTIIEFVEILSN
B9: AbTir^TIR (amino acid 134-267) (domain or fragment, Acinetobacter, UniProt A0A009IHW8 134-267, looked up)
chain: EYDLFISHASEDKEDFVRPLAETLQQLGVNVWYDEFTLKVGDSLRQKIDSGLRNSKYGTVVLSTDFIKKDWTNYELDGLVAREMNGHKMILPIWHKITKNDVLDYSPNLADKVALNTSVNSIEEIAHQLADVIL
B10: AbTir^CC (amino acid 27-118) (domain or fragment, Acinetobacter, UniProt A0A009IHW8 27-118, looked up)
chain: SPSTLKTKLSEISRKEQENARIQSKLSDLQKKKIDIDNKLLKEKQNLIKEEILERKKLEVLTKKQQKDEIEHQKKLKREIDAIKASTQYITD

Assays:
[1] = target: the molecule itself; experiment: SEC-MALS
[2] = target: the molecule itself; experiment: SEC-MALS; remark: listed apart in the source
[3] = target: the molecule itself; experiment: crystal structure

Row | Protein | stoichiometry N [1] | further results
1 | B1 | 4 | 
2 | B2 | 2 | 
3 | B3 | 4 | 
4 | B4 | 4 | 
5 | B5 | 2 | 
6 | B6 |  | stoichiometry N [2]: 2
7 | B7 |  | binding result [3]: binds
8 | B8 | 4 | 
9 | B9 |  | binding result [2]: binds
10 | B10 |  | binding result [2]: binds
